Source: patent publication US20190269666A1, “COMBINATION THERAPY WITH MERESTINIB AND ANTI-PD-L1 OR ANTI-PD-1 INHIBITORS FOR USE IN THE TREATMENT OF CANCER” (Eli Lilly and Company, priority 2016, published 2019)

What was measured:
human PD-L1 [1] = biological target: T1, human PD-L1 (Homo sapiens, UniProt Q9NZQ7); experiment: ELISA binding to recombinant PD-L1; set-up: purchased R&D Systems; conditions: after 4 weeks at 4° C., 25° C. and 40° C.
Procedure: The ability for antibodies of the present invention to bind human PD-L1 can be measured with an ELISA assay. For the PD-L1 binding assay, a 96-well plate (NUNC®) is coated with human PD-L1-Fc (R&D Systems) overnight at 4° C. Wells are blocked for 2 hours with blocking buffer (PBS containing 5% nonfat dry milk). Wells are washed three times with PBS containing 0.1% TWEEN®-20. Anti-PD-L1 antibody or control IgG (100 μL) is then added and incubated at room temperature for 1 hour. After washing, the plate is incubated with 100 μL of goat anti-human IgG F(ab′)2-HRP conjugate (Jackson Immuno Research) at room temperature for 1 hour. The plates are washed and then incubated with 100 μL of 3,3′, 5,5′-tetra-methylbenzidine. The absorbance at 450 nm is read on a microplate reader. The half maximal effective concentration (EC50) is calculated using GraphPad Prism 6 software.
Target sequence in this assay (Q9NZQ7 with tags, fused parts or gaps limits assumed): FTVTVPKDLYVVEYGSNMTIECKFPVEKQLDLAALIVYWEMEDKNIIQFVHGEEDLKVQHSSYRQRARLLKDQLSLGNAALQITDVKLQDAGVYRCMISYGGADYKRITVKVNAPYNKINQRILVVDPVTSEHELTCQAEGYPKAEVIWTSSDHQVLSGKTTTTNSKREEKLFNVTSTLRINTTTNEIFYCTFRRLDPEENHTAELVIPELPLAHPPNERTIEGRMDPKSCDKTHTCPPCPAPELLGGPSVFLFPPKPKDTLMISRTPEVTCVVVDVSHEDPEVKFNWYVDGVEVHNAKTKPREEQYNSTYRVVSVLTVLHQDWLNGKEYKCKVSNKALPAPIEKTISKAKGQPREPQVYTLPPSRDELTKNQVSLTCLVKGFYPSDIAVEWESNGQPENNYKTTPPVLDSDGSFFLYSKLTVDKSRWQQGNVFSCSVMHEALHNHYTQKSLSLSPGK

Cyno PD-L1 = experiment: Binding kinetics and affinity by surface plasmon resonance (Biacore); set-up: species or system cynomolgus monkey; conditions: SPR, analysis at 37° C.
Procedure: (§1) The kinetics and equilibrium dissociation constant (KD) for human PD-L1 is determined for antibodies of the present invention using surface plasmon resonance (Biacore).
(§2) Immobilization of antibodies of the present invention as ligand on to sensor chip surface is performed at 25° C. Soluble human PD-L1-Fc fusion protein (and in some cases, cynomolgus monkey PD-L1-Fc fusion proteins) is injected as analyte at concentrations ranging from 0.0123 nM-9 nM. The analysis is performed at 37° C. The contact time for each sample is 180 seconds at 30 μL/minute. The dissociation time was 240-1500 seconds. The immobilized surface is regenerated for 18 seconds with 0.95 M NaCl/25 mM NaOH at 30 μL/minute, and then stabilized for 30 seconds. Binding kinetics are analyzed using the Biacore T200 Evaluation software (Version 3.0). Data are referenced to a blank flow cell, and the data are fit to a 1:1 binding model.

human PD-L1 [2] = biological target: T1, human PD-L1; experiment: as above; set-up: Soluble human PD-L1-Fc fusion protein; conditions: SPR, analysis at 37° C.
Procedure: as §1, §2
Target sequence in this assay (Q9NZQ7 19-238 limits assumed): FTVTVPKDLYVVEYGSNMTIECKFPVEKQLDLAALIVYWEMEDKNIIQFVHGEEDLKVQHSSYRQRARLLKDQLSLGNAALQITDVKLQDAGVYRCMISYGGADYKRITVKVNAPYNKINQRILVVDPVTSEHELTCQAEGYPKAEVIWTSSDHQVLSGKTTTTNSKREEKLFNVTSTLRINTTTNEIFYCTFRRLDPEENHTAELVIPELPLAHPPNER

PD-L1 binding to PD-1 = PD-L1 binding to PD-1 (Homo sapiens, UniProt Q9NZQ7); experiment: ELISA blocking of the interaction of PD-L1 with PD-1; conditions: after 4 weeks at 4° C., 25° C. and 40° C.
Procedure: The ability for antibodies of the present invention to block PD-L1 binding to PD-1 can be measured in an ELISA assay. For the receptor-ligand blocking assay, varying amounts (of anti-PD-L1 antibody or control IgG are mixed with a fixed amount of biotinylated PD-L1-Fc fusion protein (100 ng/well) and incubated at room temperature for 1 hour. The mixture is transferred to 96-well plates pre-coated with PD-1-Fc (1 μg/ml) and then incubated at room temperature for an additional 1 hour. After washing, streptavidin HRP conjugate is added, and the absorbance at 450 nm is read. IC50 represents the antibody concentration required for 50% inhibition of PD-L1 binding to PD-1.

PD-L1 binding to PD-1, sequence (Q9NZQ7 19-239 limits assumed): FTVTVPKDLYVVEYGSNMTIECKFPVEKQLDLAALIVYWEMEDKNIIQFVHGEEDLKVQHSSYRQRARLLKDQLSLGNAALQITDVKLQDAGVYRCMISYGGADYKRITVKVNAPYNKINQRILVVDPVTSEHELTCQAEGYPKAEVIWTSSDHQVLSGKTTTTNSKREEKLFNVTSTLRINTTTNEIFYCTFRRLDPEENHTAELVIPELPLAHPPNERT

## LY3300054: IgG1 variant antibody lacking Fc effector function, that binds human PD-L1; HC SEQ ID NO: 10, LC SEQ ID NO: 11
Human PD-L1 [1]
  binding activities after storage: retains its binding activities
Cyno PD-L1
  Koff: 0.000184 s⁻¹
  Kon: 1.51e+06 M⁻¹ s⁻¹
Human PD-L1 [2]
  Koff: 0.000114 s⁻¹
  Kon: 1.4e+06 M⁻¹ s⁻¹
PD-L1 binding to PD-1
  blocking activities after storage: retains its blocking activities
